Assay results published in the supplement of paper PMC10065799, “High-throughput profiling of sequence recognition by tyrosine kinases and SH2 domains using bacterial peptide display” (eLife, 2023).

How the values were obtained:
Grb2 SH2 = Grb2 SH2 (UniProt P62993); assay: SH2 binding enrichment of the phosphorylated peptide, bacterial display (enrichment ratio); higher = better substrate or ligand; peptides without Tyr show the background
c-Src SH2 = assay: as above
SHP2-C SH2 = assay: as above
EPHB2 = EPHB2 (UniProt P29323); assay: phosphorylation enrichment, bacterial display (enrichment ratio); higher = better substrate or ligand; peptides without Tyr show the background
EPHB1 = EPHB1 (UniProt P54762); assay: as above
FGFR3 = FGFR3 (UniProt P22607); assay: as above
MERTK = MERTK (UniProt Q12866); assay: as above
c-Src = assay: as above
c-Abl (mouse) = assay: as above
Hck = Hck (UniProt P08631); assay: as above
Jak2 = Jak2 (UniProt O60674); assay: as above
Fes = Fes (UniProt P07332); assay: as above
Fyn = Fyn (UniProt P06241); assay: as above
Fer (mouse) = assay: as above
AncSZ = assay: as above
FGFR1 = FGFR1 (UniProt P11362); assay: as above
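For SH2 binding enrichment of the phosphorylated peptide, bacterial display in this document: peptide library displayed on the E. coli surface as eCPX fusions, selected cells deep-sequenced, score is each peptide's frequency after selection divided by its frequency in the input.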
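For phosphorylation enrichment, bacterial display in this document: 11-residue human phosphosite peptides and single-mutation variants displayed on the E. coli surface, counted by deep sequencing, each peptide's frequency after selection divided by its frequency in the unselected input library; frequency after pTyr selection over input frequency; kinase dosed for 20-30% of maximal phosphorylation in three min.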

Fyn, sequence (P06241 whole entry, looked up): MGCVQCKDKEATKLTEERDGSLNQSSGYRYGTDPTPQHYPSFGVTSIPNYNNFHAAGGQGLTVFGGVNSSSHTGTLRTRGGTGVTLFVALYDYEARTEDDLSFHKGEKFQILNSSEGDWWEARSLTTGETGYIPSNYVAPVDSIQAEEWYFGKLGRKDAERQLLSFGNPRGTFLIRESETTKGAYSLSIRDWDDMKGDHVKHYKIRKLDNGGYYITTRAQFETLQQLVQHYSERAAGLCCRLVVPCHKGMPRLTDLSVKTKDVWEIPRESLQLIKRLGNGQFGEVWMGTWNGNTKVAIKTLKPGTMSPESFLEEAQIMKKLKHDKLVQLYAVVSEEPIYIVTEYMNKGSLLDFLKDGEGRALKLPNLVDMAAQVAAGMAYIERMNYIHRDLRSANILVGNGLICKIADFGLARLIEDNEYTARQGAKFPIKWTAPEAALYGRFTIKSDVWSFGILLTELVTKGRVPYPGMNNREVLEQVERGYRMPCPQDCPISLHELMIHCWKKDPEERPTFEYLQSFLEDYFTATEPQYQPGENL
FGFR1, sequence (P11362 whole entry, looked up, the tested form may be a part): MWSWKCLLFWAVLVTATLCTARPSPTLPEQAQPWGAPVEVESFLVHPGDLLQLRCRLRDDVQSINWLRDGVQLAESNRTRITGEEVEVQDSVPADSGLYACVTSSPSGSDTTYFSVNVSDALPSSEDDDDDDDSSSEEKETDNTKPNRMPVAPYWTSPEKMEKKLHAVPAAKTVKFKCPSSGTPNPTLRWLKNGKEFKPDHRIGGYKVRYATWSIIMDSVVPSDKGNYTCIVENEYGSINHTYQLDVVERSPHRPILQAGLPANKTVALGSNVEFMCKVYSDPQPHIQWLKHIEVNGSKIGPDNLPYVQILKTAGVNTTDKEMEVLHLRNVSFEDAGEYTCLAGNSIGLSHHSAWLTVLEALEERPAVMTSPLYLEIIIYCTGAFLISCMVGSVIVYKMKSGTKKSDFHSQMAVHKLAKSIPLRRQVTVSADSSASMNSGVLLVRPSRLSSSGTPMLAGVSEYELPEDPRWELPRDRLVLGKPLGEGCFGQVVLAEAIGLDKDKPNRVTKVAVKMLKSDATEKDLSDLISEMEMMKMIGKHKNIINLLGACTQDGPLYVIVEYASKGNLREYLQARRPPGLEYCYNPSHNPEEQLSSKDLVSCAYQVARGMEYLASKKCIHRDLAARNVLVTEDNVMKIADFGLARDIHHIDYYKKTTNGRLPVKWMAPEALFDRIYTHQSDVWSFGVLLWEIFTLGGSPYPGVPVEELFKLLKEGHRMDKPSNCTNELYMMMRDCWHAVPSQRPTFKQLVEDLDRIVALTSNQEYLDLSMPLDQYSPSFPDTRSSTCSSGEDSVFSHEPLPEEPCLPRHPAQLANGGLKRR
Fes, sequence (P07332 whole entry, looked up): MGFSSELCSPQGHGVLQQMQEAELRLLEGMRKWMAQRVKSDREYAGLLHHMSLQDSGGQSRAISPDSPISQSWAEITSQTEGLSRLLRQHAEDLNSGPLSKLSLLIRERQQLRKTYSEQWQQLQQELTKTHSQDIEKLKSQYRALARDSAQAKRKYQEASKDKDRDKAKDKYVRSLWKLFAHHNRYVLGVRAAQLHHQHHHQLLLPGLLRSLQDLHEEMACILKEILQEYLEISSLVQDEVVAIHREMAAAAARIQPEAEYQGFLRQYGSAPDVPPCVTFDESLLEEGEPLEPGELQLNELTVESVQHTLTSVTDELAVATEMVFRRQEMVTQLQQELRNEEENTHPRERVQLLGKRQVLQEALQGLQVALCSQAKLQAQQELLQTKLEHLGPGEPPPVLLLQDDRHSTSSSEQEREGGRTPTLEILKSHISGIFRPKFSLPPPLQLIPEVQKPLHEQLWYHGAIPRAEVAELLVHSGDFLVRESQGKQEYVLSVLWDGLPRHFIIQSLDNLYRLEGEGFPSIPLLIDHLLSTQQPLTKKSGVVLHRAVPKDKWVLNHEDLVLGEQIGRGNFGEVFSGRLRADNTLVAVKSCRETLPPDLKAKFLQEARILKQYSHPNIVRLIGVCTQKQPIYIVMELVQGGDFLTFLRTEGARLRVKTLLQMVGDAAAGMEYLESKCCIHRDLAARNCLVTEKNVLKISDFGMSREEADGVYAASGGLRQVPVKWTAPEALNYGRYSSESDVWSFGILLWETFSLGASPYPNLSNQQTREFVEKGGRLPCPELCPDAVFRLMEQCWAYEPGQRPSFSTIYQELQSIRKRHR
MERTK, sequence (Q12866 whole entry, looked up): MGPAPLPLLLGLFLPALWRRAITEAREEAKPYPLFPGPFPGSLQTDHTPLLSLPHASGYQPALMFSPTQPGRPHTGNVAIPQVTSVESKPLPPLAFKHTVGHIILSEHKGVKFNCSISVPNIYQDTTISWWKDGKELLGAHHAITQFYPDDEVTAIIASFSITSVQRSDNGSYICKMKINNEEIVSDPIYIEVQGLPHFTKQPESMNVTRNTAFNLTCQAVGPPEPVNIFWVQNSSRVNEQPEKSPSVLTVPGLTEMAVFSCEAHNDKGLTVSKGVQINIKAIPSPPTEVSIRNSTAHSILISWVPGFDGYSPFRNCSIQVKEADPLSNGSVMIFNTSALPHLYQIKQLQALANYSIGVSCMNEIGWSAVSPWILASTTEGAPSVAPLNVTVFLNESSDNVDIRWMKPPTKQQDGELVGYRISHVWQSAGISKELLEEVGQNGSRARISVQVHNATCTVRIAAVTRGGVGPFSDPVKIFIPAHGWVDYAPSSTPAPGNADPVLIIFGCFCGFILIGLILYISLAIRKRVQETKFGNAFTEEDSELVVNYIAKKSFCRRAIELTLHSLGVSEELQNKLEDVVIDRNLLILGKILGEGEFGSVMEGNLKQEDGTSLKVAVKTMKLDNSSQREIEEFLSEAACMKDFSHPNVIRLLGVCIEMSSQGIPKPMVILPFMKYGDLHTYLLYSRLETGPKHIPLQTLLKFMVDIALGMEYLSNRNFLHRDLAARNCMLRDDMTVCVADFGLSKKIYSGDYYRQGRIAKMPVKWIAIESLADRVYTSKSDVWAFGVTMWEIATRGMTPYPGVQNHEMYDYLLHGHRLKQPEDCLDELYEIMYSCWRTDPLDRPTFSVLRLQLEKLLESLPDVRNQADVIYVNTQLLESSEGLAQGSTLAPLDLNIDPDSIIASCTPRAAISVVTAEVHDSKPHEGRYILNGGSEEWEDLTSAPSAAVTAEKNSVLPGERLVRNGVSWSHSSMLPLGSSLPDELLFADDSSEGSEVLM
FGFR3, sequence (P22607 whole entry, looked up): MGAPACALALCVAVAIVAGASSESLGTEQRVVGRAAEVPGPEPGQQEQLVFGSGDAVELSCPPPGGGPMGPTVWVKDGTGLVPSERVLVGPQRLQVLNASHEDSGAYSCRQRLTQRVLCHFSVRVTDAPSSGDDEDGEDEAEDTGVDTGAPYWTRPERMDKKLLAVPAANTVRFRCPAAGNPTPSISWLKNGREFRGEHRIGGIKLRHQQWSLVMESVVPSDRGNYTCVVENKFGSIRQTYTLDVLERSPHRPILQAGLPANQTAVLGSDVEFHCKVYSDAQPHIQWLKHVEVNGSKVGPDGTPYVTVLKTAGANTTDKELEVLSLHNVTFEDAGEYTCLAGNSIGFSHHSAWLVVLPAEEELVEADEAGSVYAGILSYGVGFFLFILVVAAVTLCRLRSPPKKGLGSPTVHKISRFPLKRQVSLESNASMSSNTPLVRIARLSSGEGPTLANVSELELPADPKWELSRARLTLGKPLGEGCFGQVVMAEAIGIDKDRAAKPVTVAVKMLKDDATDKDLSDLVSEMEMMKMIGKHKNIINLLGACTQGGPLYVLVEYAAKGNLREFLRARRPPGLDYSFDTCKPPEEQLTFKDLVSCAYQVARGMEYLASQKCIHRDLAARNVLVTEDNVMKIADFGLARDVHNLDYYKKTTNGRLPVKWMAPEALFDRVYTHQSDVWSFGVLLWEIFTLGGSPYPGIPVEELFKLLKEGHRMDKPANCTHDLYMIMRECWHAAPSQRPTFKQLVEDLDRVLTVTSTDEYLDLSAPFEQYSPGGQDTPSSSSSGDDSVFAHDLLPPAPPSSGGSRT
EPHB1, sequence (P54762 whole entry, looked up): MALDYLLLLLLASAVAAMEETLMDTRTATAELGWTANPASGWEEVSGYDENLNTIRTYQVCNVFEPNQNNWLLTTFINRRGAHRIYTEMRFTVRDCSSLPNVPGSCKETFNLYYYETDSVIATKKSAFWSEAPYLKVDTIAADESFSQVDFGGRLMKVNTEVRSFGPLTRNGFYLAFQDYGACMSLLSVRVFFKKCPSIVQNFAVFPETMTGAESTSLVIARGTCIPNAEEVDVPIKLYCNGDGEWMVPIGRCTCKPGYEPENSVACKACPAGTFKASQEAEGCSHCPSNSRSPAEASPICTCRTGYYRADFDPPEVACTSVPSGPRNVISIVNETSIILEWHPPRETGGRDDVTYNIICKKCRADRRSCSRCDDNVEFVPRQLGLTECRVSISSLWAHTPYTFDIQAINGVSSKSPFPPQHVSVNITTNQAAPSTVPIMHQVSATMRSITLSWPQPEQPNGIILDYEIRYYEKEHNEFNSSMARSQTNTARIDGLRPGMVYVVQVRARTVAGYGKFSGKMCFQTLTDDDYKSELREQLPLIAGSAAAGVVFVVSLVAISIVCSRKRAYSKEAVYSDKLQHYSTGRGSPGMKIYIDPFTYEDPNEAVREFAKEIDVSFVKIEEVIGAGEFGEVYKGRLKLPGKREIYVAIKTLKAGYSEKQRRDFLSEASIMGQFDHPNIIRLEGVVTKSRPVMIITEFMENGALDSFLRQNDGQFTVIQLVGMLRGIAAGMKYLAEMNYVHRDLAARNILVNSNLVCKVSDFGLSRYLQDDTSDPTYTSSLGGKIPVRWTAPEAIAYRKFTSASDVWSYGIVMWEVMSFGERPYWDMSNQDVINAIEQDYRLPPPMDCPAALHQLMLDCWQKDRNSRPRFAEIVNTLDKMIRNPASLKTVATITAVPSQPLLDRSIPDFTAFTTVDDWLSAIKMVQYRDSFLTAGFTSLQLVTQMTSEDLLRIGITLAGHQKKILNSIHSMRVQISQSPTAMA

| Sequence | SH2 binding enrichment (Grb2 SH2) | SH2 binding enrichment (c-Src SH2) | SH2 binding enrichment (SHP2-C SH2) | phosphorylation enrichment (EPHB2) | phosphorylation enrichment (EPHB1) | phosphorylation enrichment (FGFR3) | phosphorylation enrichment (MERTK) | phosphorylation enrichment (c-Src) | phosphorylation enrichment (c-Abl (mouse)) | phosphorylation enrichment (Hck) | phosphorylation enrichment (Jak2) | phosphorylation enrichment (Fes) | phosphorylation enrichment (Fyn) | phosphorylation enrichment (Fer (mouse)) | phosphorylation enrichment (AncSZ) | phosphorylation enrichment (FGFR1) |
| --- | --- | --- | --- | --- | --- | --- | --- | --- | --- | --- | --- | --- | --- | --- | --- | --- |
| ENGPFYTSFPP [GDAP2_Y488_YF] | 0.813 | 0.83 | 0.711 | 2.41 | 2.92 | 2.62 | 13.1 | 6.71 | 8.39 | 7.05 | 1.61 | 1.04 | 8.74 | 4.74 | 1.12 | 3.86 |
| EPNSRYTCKLE [USH2A_Y3745_Y3747C] | 1.06 | 0.576 | 0.826 | 0.562 | 0.556 | 0.724 | 0.497 | 0.539 | 0.762 | 0.549 | 0.897 | 0.985 | 0.563 | 0.566 | 1.02 | 0.621 |
| EQQRAYLEGTC [HLA-C_Y183_L180Q] | 0.916 | 0.69 | 0.758 | 0.555 | 0.647 | 0.602 | 0.521 | 0.531 | 0.834 | 0.556 | 0.93 | 1.03 | 0.518 | 0.455 | 0.939 | 0.599 |
| EQSGSYIWVLA [DLG1_Y895_P899L] | 0.65 | 0.383 | 0.394 | 0.641 | 0.634 | 0.917 | 0.504 | 0.476 | 0.705 | 0.517 | 1.14 | 1.32 | 0.482 | 0.526 | 1.27 | 1.11 |
| EREYKYGAHNY [OAT_Y50] | 0.927 | 0.623 | 0.783 | 0.376 | 0.354 | 0.43 | 0.397 | 0.394 | 0.506 | 0.333 | 0.5 | 0.558 | 0.445 | 0.35 | 0.516 | 0.348 |
| ERRLIYASDPK [VPS13D_Y864_T865A] | 0.837 | 0.625 | 0.589 | 0.391 | 0.443 | 0.479 | 0.45 | 0.475 | 0.545 | 0.473 | 0.506 | 0.678 | 0.418 | 0.395 | 0.634 | 0.46 |
| ESKKHYGFSLF [ANXA3_Y295_F291S_YF] | 1.03 | 0.644 | 0.717 | 0.541 | 0.574 | 0.678 | 0.526 | 0.453 | 0.676 | 0.528 | 0.93 | 1.03 | 0.513 | 0.526 | 1.01 | 0.572 |
| ESLRPYDVMDV [KCNQ2_Y562] | 0.83 | 12.9 | 0.558 | 0.683 | 0.583 | 0.665 | 0.437 | 0.719 | 0.595 | 0.602 | 0.876 | 1.14 | 0.668 | 0.846 | 1.03 | 0.455 |
| ETALHYIHDGI [GATD3A_Y250] | 0.786 | 0.501 | 1.03 | 0.525 | 0.524 | 0.637 | 0.431 | 0.48 | 0.659 | 0.432 | 0.775 | 0.796 | 0.433 | 0.525 | 0.818 | 0.412 |
